Data from PMC3875364.
Where two headings read alike, the source gives them in different places.

Experiments:
Assay in all cases: fluorescence anisotropy
NC(1-55) WT, zinc-bound [1] = molecular target: T1, NC(1-55) WT, zinc-bound (HIV-1 (NL4-3 isolate), UniProt P12493 378-432)
NC(29-55) = NC(29-55) (HIV-1 (NL4-3 isolate), UniProt P12493 406-432)
NC(1-55) WT, zinc-bound [2] = molecular target: T1, NC(1-55) WT, zinc-bound; remark: listed apart in the source
NC(1-35) = molecular target: T2, NC(1-35) (HIV-1 (NL4-3 isolate), UniProt P12493 378-412)
T2 chain: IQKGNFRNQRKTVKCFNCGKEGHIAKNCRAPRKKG

NC(1-28) = molecular target: T3, NC(1-28) (HIV-1 (NL4-3 isolate), UniProt P12493 378-405)
T3 chain: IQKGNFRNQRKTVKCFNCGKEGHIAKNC

Binder: CTTCTTTGGGAGTGAATTAG (ssDNA) [5'-FAM-DNA20]
- Kd (NC(1-55) WT, zinc-bound [1]): 16 ± 5 nM
- Kd (NC(29-55)): 867 ± 3 nM
- Kd (NC(1-55) WT, zinc-bound [2]): 57 ± 22 nM
- Kd (NC(1-35)): 86 ± 19 nM
- Kd (NC(1-28)): 731 ± 150 nM
